Results taken from the DeepSol protein solubility set.

Test: soluble on expression in E. coli; label from the status in PepcDB or PDB records

| Sequence | soluble on expression in E. coli |
| --- | --- |
| MSIPVPMETGANSEAWKKANEALMKIQGGMSKGLNASNGNNNTGQNSWMNNSFSFPNPPSAYGQFGGGFHPSTWGSGPIVPPPPPQQSAVNATAQAAYNQASFNYAPPPPPQNWNNGYGRGRGGGANNWNQQQRPQQFQPFALNRKNNSSAFPHLTSTFVPQGGGPQPLMGVGRGRGVPAPGPAKPPPPSAQRYMERAFEAANTVEDRQKTQEYLQKRLFPMLNAGNAHMVNWDNEPLPHEKNYELAPAWTPANKLPHQANGFNRKKSPSRRRSDEMSNSGAAGGGGQMKRARRDSDGASSDSDNSDPLEKMHFSSMNQKKTKAQKKAEKAARKAAKKLQKQQTPQKVKNAWKVAGGDTEARREDRARRFAETLYNVSKPSVSVPQHYFRRGQVIRGTCQNIEKSFFRLTAAPNPSEVRPLEVLRLSLQNVRDKYRARAEYSYLTSQMRSIRQDLTVQVIRNEFTVEVYEINARISLENADREEFNKCQSQLKLLYSEIENCANQAEFVAYRLLYYIAMDNQIDINALLRELTPELKENDCVEFALNVRKAVTMNNYVKFFRLFKNAPRMCPYIMDLFVDRERKKALGIITKAFRPTITYKLIAEFLSMKESTLIDWLEEELKWTDVEVGGTFDPKIPRNI | not soluble |
| MLQKTKGIVLHTLKYNDTSIIVDMYTELSGRTSFLVPVPRSRKAAVKSVLFQPLSFIEFEADFRPNATLYRVKEAKSFYPFTSIPYDPYKSSMALFLAEFLYRAVREEAENRPLFAYLQHSVIWLDECREGFANFHLVFLMRLSRFLGLYPNLEDYHTGDYFDLLNACFTSTRPQLHSSYINPEEAGRLRQLMRMNYETMHLFGMSRAERTRCLTIMNDYYRLHLPDFPALKSLDVLKELFD | not soluble |
| MHWQTHTVFNQPIPLNNSNLYLSDGALCEAVTREGAGWDSDFLASIGQQLGTAESLELGRLANVNPPELLRYDAQGRRLDDVRFHPAWHLLMQALCTNRVHNLAWEEDARSGAFVARAARFMLHAQVEAGSLCPITMTFAATPLLLQMLPAPFQDWTTPLLSDRYDSHLLPGGQKRGLLIGMGMTEKQGGSDVMSNTTRAERLEDGSYRLVGHKWFFSVPQSDAHLVLAQTAGGLSCFFVPRFLPDGQRNAIRLERLKDKLGNRSNASCEVEFQDAIGWLLGLEGEGIRLILKMGGMTRFDCALGSHAMMRRAFSLAIYHAHQRHVFGNPLIQQPLMRHVLSRMALQLEGQTALLFRLARAWDRRADAKEALWARLFTPAAKFVICKRGMPFVAEAMEVLGGIGYCEESELPRLYREMPVNSIWEGSGNIMCLDVLRVLNKQAGVYDLLSEAFVEVKGQDRYFDRAVRRLQQQLRKPAEELGREITHQLFLLGCGAQMLKYASPPMAQAWCQVMLDTRGGVRLSEQIQNDLLLRATGGVCV | soluble |
| AHHHHHHGSNQLEAVREKLRVIRMLRVLKKTYTYEDLSEITGLPVTVLNRYVKGKVLPSVERARELFEKLSPYLNLEEEVKKRLRFDSHGFFDSMSVLSDTNLLALISEDVALKYMKVGVEKILTAATDGIPLAVQIANELGVDVVYAKKKKEVGVERFYEVNYIPSASGSITTLYLPTWALKKGERVLIVDDVVRSGETQRALVELCRQAGAIPVGMFFLISVGDIVERLKEEYNIPVEALVNL | soluble |
| MAHHHHHHMQPKMTAPLTMKDNNKCLSVRVGSTLEIHLEGNPTTGYTWTRVGFVGKEMLSDEHLEVTSKYTPKPVSGSMVGAGGSYTVFVKPLRKGQHAVQLVYARPFEGPKPDNERYTLHLNVE | soluble |
| MAKITEENYVSLEDLMQLLNSSESTIRRDLGELEQEGRLHRVHGGAELFHSLQEELSNQEKSVKNSHIKKAIAQRASQLIYDNDVIFIDAGTTTEFLLPFLQAKNLTVVTNSIHHAARLVELSIETIIVGGYVKQTTDASIGNVALEQIRQMNFDKAFLGMNGVDDSYLTTPDMEEAVIKKAVLSNAKLAYILVDGTKIGQVSFVKVAPINDVTIITLGGSASILKQIKEKAKVIEL | soluble |
| MKHLVICIALLTVGACCFAQQKKVASHKAASGNPVFQGWYADPEGIIYDDTYWIFPTWSDLYENQTFFDCFSSKDLVNWTKHASVLDTTAVKWAKKAMWAPSVIRKNGKYYIFFGANDVHEGEIGGIGVAVSDRPEGPYKDLLGKPLINEIVNGAQPIDQFVYNDNGHYYMYYGGWGHCNVVQLNDDFTGLVPFEDGTVYKEVTPENYVEGPFMFKKDGKYYFMWSEGGWGGPDYSVAYAISDSPFGPFKRVAKILQQDPSVATSAGHHSLLHAPGTDDYYIVYHRRPLNDNARDHRVTCIDKMTFDKDGFINPVKMTFEGVPAQKIKKSKKK | not soluble |
| MGSDKIHHHHHHMSTELNTMALSVPQGAGLDGYIQSVNRIPMLTAEKEKALATRLYENSDLDAAKELIMSHLRFVVHVARSYSGYGLPQADLIQEGNIGLMKAVKRFDPSVGVRLVSFAVHWIKAEIHEYVLRNWRVVKVATTKAQRKLFFNLRKMKKRLGWFSQKEVETVANELGVSTKEVLEMETRMSAHDQAFELSSDDDDSKEGSAYSPAMYLEDKRSDLAAEIEAKDYENHTQQKLLGAMSHLDERSQDIVQSRWLSEDKTTLHDLAEKYEVSAERVRQLEQNAMKKLRLAMS | not soluble |
| MGSDKIHHHHHHMTEATKTDFSKLNVYQKLAYVRQKAPYIQKSKRGQQYSYVGSSDVLSALNTVINQVGLILKPEIVAHQVRESQDEVWKADKVKKEPVAKKRTTYFTELELMMTWINIHNPSEIVACSWYSQGVDIEGEKGVGKALTYAEKYFLLKFFNIATDDDDPDKYQKEQLKNTTITERQIDMLNASISRVAELAGQEFEAVKSLAINDSDLNPKKAFEEYSAYDYGVISKLLAKWINFYESRQKVQEDKK | not soluble |
| MNSAPLLVDPSTQSATVVAETQPFGDRCMLESLIRRPFCMNPQLQTHPYDRQPTTAPRLQMMPRRDQTQNPVIAELMSTVTRVRDRKRQRDEEAMYPRRSVGLQTDTEDVSEVLDGGTRISDMKRVRREELLDQSSLDGITFETSGTNTSDEPHSQIITSNSSSLPSTSASSSSDRPRAMRSNQEMRQARRARRQRQTQHESQRMQLEHRLQQITGPVPGSEHNCMTGCPHLHQQQQQQHQQPLLHIQLNPIPPQPQTGPNSVSPTIAPGAMLRAHPLASTFPYFSLPLTQNYPVMMVLPMAAVAQQHAAAAAAVVAVAAAAAVPQPPPPPPQPTLHAPVPIRPQNNPYNLYAFRNSPINVHAPGYVGEYVELFRSQQFLFPTSERYGIDRHHMFGGLDLDLPVGASKVEIDTFTIPTVYAKKTDGEEDEDTCTVCLSSFEDGESIQKLRCNHVFHPECIYKWLDINKRCPMCREEIDRPESLRTQPGL | not soluble |
| MAKLGPAGYSPYPVAVTEGVLTPPPGKALMFNEIVDEEIAMREAAKAMLTRDNPTIFPGPQVLYAWNEEAKEKAKLVRKMAEVLGAKIIPMYDYRPKYPKIDPEKEINPNHPNLTIWHNKIKACIFIGVHCHYANVALKIIRAETDCFTIAMCSMAGHEDAMITLRDQHVEDLEKFIKIAEEVKKELGK | not soluble |
| MAQTTLIKNVNGYTFTDNSLTQFSAISFTDDIINKVYPIGAVLPASKGVIVIDGQGQTMLPGLIDAHGHVIGYGHSLEHHHHHH | not soluble |
| MAAPSMKERQACWGARDLYWRCLDDNAEDAARCQKLRSSFEASCPQQWIKYFDKRRDYLKFKEKFEAGGFQSSQSTENS | soluble |
| MNIFSKPDPKELERANKRELRKTNRDLESDRRQMDRREKELEQEIKKLAAKGHNDAARHLAKQLVQLRNQKTKSIGMSARISGVQAQNSHMQSMAKMGSAMGTTVKTMKAMNAQMPLEKVAANMREFQMAQEKMGLTEEMMNDTLDSILDAPGDADEQDAIVNQVLDEIGIEMNSKLANVPALPTKVSSTAPADFDDLEAQLARLRS | not soluble |
| MRANLGVPSTIAQSRWAESATSFPTATVAAAGGKDIEIERDVAHNQPGGIFPNVIFLESLDFSACFVDAHQVFVSDGSVMFRRWDRQKKTGRKK | not soluble |
| MDLHADSLDGTRSGPGLPTSDTKASFEAHVREKFNRMVEAVDRTVEKRIDKLTKELAQKTAELLEVRAAFVQLTQKKQEVQRRERALNRQVDVAVEMIAVLRQRLTESEEELLRKEEEVVTFNHFLEAAAEKEVQGKARLQDFIENLLQRVELAEKQLEYYQSQQASGFVRDLSGHVLTDISSNRKPKCLSRGHPHSVCNHPDLKSHFHPKGRNHLKKAKDDRASMQPAKAIHEQAESSRDLCRPPKKGELLGFGRKGNIRPKMAKKKPTAIVNII | not soluble |
| MRWNRMNPFGSYKKVVSARSTLKEVLKKAQDGGIVSTAFIYGLENNLLDGVIVADNAGEFKAVPKVATTPEEVLEAAGTKYTVCPNISVLKSAVREYGCEKIGVVGTPCQVRAVRKLMKYPVGFRHVPDKIALIIGIFCMENFPYYGLKLIVEEHCGVKMEDVVKMDIGKGKFWVYTRWGETKAIKLKETHPYEQIACHVCTDYTAELADISTGSVGSPDGWSTVFIRTAKGEEIFNKMVEDGYLEVKPIEEVKPGLGLVEKLALQKKEKNMKEIEHRKELGLPIPYLEHHHHHH | soluble |
| MSLKLYKEIINLIDNHQATMVEQLHQFCEINSGTTNLTGLAIMAETLCSAFKPIADTTELITLPPLSVIDMTGNTVMQSCGDVLFISKRPHLKRRILLSGHMDTVYSASNPFQKLSYLDANQINGPGVADMKGGLIVILHALAAFENTRFAEDMGWDVLINSDEEIGSPTSGSLFNKLAHRYQAALVYEPAMTPNGTLAKNRKGSGKLTLVATGRAAHAGRAFDEGRNAICYLAEAITAVHALNGQKNGVTINVGKIAGGEALNVVPDKAVAQLDIRISLPEDEIWVRNELNKIIKQLERPDYSLNVHGTFGRPVKRICAGTERLFHRIQKIGEALGLTIDWKDSGGCCDGNNLAHYGLPVLDTLGVRGGNIHSSDEYILLDSLSERAALSALLLIDLAQGGLEDLIKEGHHHHHH | soluble |
| MSLSYTKIFGLGGVHEIGKSTLVIHHEKSIAIIDAGIKFADSSTTGLHGIIPNYSYLKKHEDQIEGIFVTHGHEDHIGGIIYLLQQVKINKIFAPKIAIEYLKYKLEDRGLRIKVEFIEIKKDDTHHLGSLVVDFWTAQHSIPDAFGIRVKTPDGSVLCTGDFRIDYRPIGNYTDFSKLEQIGKEGLTLLLSDSTNAMRPNHSPSENDILKDIEKIMLAAKRKIIITTFASNLIRIKVIIELAEKLNKKIAVFGRSMVNGIAIGKELGYIKTPDSSFIDKKSIDQYEDKDIVILTTGSQGEQLAALSRMSYEKHPQVSIRKNDTIIFSSSPIPGNKMKIELLINRLYKLGAIIKENGVDGYLHTSGHAYQEEHEKIFSIAKPKYFFPYHGEYRMSVVHGQTAIRSGVKPENVIIPGIGEVVKMEEGHHHHHH | not soluble |
| MFMKYALFPGCKIAFERPDLELAMREVLTALDVPFEYLSDFSCCPTWASVPSFDIEAWLAISARNISLAEEKGLDIVVGCGDCYSVLNHARDMLKREEWRERVNRILAKVGRVYRGTTKIYHIIHLLEERKIKKNLKHRLNGFVAGVQPGCHLLWPAKIFDAKEENPFFPERLKKLVEAMGAETPHYSRLEYCCGNHIDIVDYEKFLDFVQLKLQSLKEEIDPDFIVTACSTCFIQLDEGQKRLKRLGRIDYEIPVFHFPQLLAICLGSNPEKVARISSVDRSKIISEILEGRE | not soluble |
| MKSVIIVGAGIGGLCLAQGLAKAGIEFEVWEADAGPQVRGQGYRLRIDAMGQRALRQCLPPDLFELFRASCAVSGPARFVDPQLNPLPGRRPENWRENADAGEAGGDLSADRQVLRDILSHGLAPQIRWGRRARGFERGGDGIVVHCADGSEHGAALVVAADGLHSPLRRQWLPQAEPEAIGALNLYGKTPLDGIDPALLAGPTIVFADGWTLVVEPMRFRAAMSGLAARHAPDCRLSPTDDYVYWAMFGREACLGGSLSGEEDAAGWRRRIEAASGGLHPGLSDLLRRTAPEAVMGRAVRMAAGVPSWPPGRLTVLGDAIHAMSPAGGVGANTALADAAMLAVCLADGDVDRAVARYEADMRGRAERALVATRAGTERLLRRLLEHHHHHH | soluble |
